According to patent publication US10253076B2, “Peptides and combination of peptides for use in immunotherapy against ovarian cancer and other cancers” (immatics biotechnologies GmbH, priority 2015, dated 2019):

target: HLA-A*02:01 (Homo sapiens, UniProt P04439, D140Y/D185E/D98H/E176V/E277Q/G131W/G231S/I119V/I121R/I166T/I218V/L300P/L318F/N151K/N90K/P208A/P217A/Q86G/Q94H/R138H/R169H/T345S); experiment: MHC binding assay (UV-ligand exchange, beta2m ELISA, peptide exchange yield); details: binding of HLA-class I restricted peptides to HLA-A*02:01, ranged by peptide exchange yield (UV-ligand exchange, β2m ELISA)
Text: Candidate peptides for T cell based therapies according to the present invention were further tested for their MHC binding capacity (affinity). The individual peptide-MHC complexes were produced by UV-ligand exchange, where a UV-sensitive peptide is cleaved upon UV-irradiation, and exchanged with the peptide of interest as analyzed. Only peptide candidates that can effectively bind and stabilize the peptide-receptive MHC molecules prevent dissociation of the MHC complexes. To determine the yield of the exchange reaction, an ELISA was performed based on the detection of the light chain (β2m) of stabilized MHC complexes. The assay was performed as generally described in Rodenko et al. (Rodenko et al., 2006).
96 well MAXISorp plates (NUNC) were coated over night with 2ug/ml streptavidin in PBS at room temperature, washed 4× and blocked for 1 h at 37° C. in 2% BSA containing blocking buffer. […] Peptide-MHC monomers of the UV-exchange reaction were diluted 100 fold in blocking buffer. Samples were incubated for 1 h at 37° C., washed four times, incubated with 2ug/ml HRP conjugated anti-82m for 1 h at 37° C., washed again and detected with TMB solution that is stopped with […]. Absorption was measured at 450 nm. Candidate peptides that show a high exchange yield (preferably higher than 50%, most preferred higher than 75%) are generally preferred for a generation and production of antibodies or fragments thereof, and/or T cell receptors or fragments thereof, as they show sufficient avidity to the MHC molecules and prevent dissociation of the MHC complexes.

Substance	Peptide exchange
152 (ILFEDIFDV; listed as Homo sapiens) [compound 152]	″+++″ (≥50% = +++)
153 (FLIANVLYL; listed as Homo sapiens) [compound 153]	″+″ (≥10% = +)
154 (ALDDGTPAL; listed as Homo sapiens) [compound 154]	″++″ (≥20% = ++)
155 (RVANLHFPSV; listed as Homo sapiens) [compound 155]	″+++″ (≥50% = +++)
157 (SLNDEVPEV; listed as Homo sapiens) [compound 157]	″++″ (≥20% = ++)
158 (KLFDVDEDGYI; listed as Homo sapiens) [compound 158]	″+++″ (≥50% = +++)
159 (GLVGNPLPSV; listed as Homo sapiens) [compound 159]	″++++″ (≥75% = ++++)
160 (FLFDEEIEQI; listed as Homo sapiens) [compound 160]	″+++″ (≥50% = +++)
161 (ALLEGVNTV; listed as Homo sapiens) [compound 161]	″+++″ (≥50% = +++)
162 (YQQAQVPSV; listed as Homo sapiens) [compound 162]	″+++″ (≥50% = +++)
163 (ALDEMGDLLQL; listed as Homo sapiens) [compound 163]	″+++″ (≥50% = +++)
164 (ALLPQPKNLTV; listed as Homo sapiens) [compound 164]	″+++″ (≥50% = +++)
165 (SLLDEIRAV; listed as Homo sapiens) [compound 165]	″+++″ (≥50% = +++)
167 (KVLEVTEEFGV; listed as Homo sapiens) [compound 167]	″+++″ (≥50% = +++)
168 (KILDADIQL; listed as Homo sapiens) [compound 168]	″++++″ (≥75% = ++++)
169 (NLPEYLPFV; listed as Homo sapiens) [compound 169]	″+++″ (≥50% = +++)

Substance	Peptide exchange
170 (RLQETLSAA; listed as Homo sapiens) [compound 170]	″+++″ (≥50% = +++)
171 (LLLPLQILL; listed as Homo sapiens) [compound 171]	″+++″ (≥50% = +++)
172 (VLYSYTIITV; listed as Homo sapiens) [compound 172]	″++″ (≥20% = ++)
173 (LLDSASAGLYL; listed as Homo sapiens) [compound 173]	″+++″ (≥50% = +++)
174 (ALAQYLITA; listed as Homo sapiens) [compound 174]	″+++″ (≥50% = +++)
175 (YLFENISQL; listed as Homo sapiens) [compound 175]	″+++″ (≥50% = +++)
176 (YLMEGSYNKVFL; listed as Homo sapiens) [compound 176]	″++″ (≥20% = ++)
177 (YLLPEEYTSTL; listed as Homo sapiens) [compound 177]	″++++″ (≥75% = ++++)
178 (ALTEIAFVV; listed as Homo sapiens) [compound 178]	″++++″ (≥75% = ++++)
179 (KVLNELYTV; listed as Homo sapiens) [compound 179]	″+++″ (≥50% = +++)
180 (FQIDPHSGLVTV; listed as Homo sapiens) [compound 180]	″++″ (≥20% = ++)
181 (LLWAGTAFQV; listed as Homo sapiens) [compound 181]	″+++″ (≥50% = +++)
182 (MLLEAPGIFL; listed as Homo sapiens) [compound 182]	″+++″ (≥50% = +++)
183 (FGLDLVTEL; listed as Homo sapiens) [compound 183]	″+++″ (≥50% = +++)
184 (YLMDINGKMWL; listed as Homo sapiens) [compound 184]	″+++″ (≥50% = +++)

Continued, values first:

Peptide exchange	Substance
″++″ (≥20% = ++)	185 (FLIDDKGYTL; listed as Homo sapiens) [compound 185]
″++″ (≥20% = ++)	186 (TLFFQQNAL; listed as Homo sapiens) [compound 186]
″+++″ (≥50% = +++)	187 (RQISIRGIVGV; listed as Homo sapiens) [compound 187]
″+++″ (≥50% = +++)	188 (GLFPVTPEAV; listed as Homo sapiens) [compound 188]
″+++″ (≥50% = +++)	189 (ALQRKLPYV; listed as Homo sapiens) [compound 189]
″+++″ (≥50% = +++)	190 (FLSSLTETI; listed as Homo sapiens) [compound 190]
″++″ (≥20% = ++)	191 (LLQEGQALEYV; listed as Homo sapiens) [compound 191]
″+++″ (≥50% = +++)	192 (KMLDGASFTL; listed as Homo sapiens) [compound 192]
″+++″ (≥50% = +++)	193 (QLLDADGFLNV; listed as Homo sapiens) [compound 193]
″+++″ (≥50% = +++)	194 (ALPLFVITV; listed as Homo sapiens) [compound 194]
″+++″ (≥50% = +++)	195 (GLFADLLPRL; listed as Homo sapiens) [compound 195]
″++++″ (≥75% = ++++)	196 (YLYSVEIKL; listed as Homo sapiens) [compound 196]
″++″ (≥20% = ++)	197 (ALGPEGGRV; listed as Homo sapiens) [compound 197]
″+++″ (≥50% = +++)	198 (KTINKVPTV; listed as Homo sapiens) [compound 198]
″+++″ (≥50% = +++)	200 (LLFGSVQEV; listed as Homo sapiens) [compound 200]
″+++″ (≥50% = +++)	201 (RLVDYLEGI; listed as Homo sapiens) [compound 201]
″+++″ (≥50% = +++)	202 (ALLDQQGSRWTL; listed as Homo sapiens) [compound 202]
″++″ (≥20% = ++)	204 (KIAENVEEV; listed as Homo sapiens) [compound 204]
″+++″ (≥50% = +++)	205 (SLYPGTETMGL; listed as Homo sapiens) [compound 205]
″+++″ (≥50% = +++)	206 (VLQEGKLQKLAQL; listed as Homo sapiens) [compound 206]

Peptide exchange	Substance
″++″ (≥20% = ++)	207 (GLTSTNAEV; listed as Homo sapiens) [compound 207]
″+++″ (≥50% = +++)	208 (KISPVTFSV; listed as Homo sapiens) [compound 208]
″++″ (≥20% = ++)	209 (KLIESKHEV; listed as Homo sapiens) [compound 209]
″++″ (≥20% = ++)	210 (LLLNAVLTV; listed as Homo sapiens) [compound 210]
″++″ (≥20% = ++)	211 (LLWPGAALL; listed as Homo sapiens) [compound 211]
″++″ (≥20% = ++)	212 (ALWDQDNLSV; listed as Homo sapiens) [compound 212]
″+++″ (≥50% = +++)	214 (FLLDLDPLLL; listed as Homo sapiens) [compound 214]
″+++″ (≥50% = +++)	215 (QLINHLHAV; listed as Homo sapiens) [compound 215]
″+++″ (≥50% = +++)	216 (NLWEDPYYL; listed as Homo sapiens) [compound 216]
″++″ (≥20% = ++)	217 (ALIHPVSTV; listed as Homo sapiens) [compound 217]
″++″ (≥20% = ++)	218 (SALEELVNV; listed as Homo sapiens) [compound 218]
″+++″ (≥50% = +++)	219 (KLSDIGITV; listed as Homo sapiens) [compound 219]
″++″ (≥20% = ++)	220 (LLQKFVPEI; listed as Homo sapiens) [compound 220]
″++″ (≥20% = ++)	221 (ALYEEGLLL; listed as Homo sapiens) [compound 221]
″++″ (≥20% = ++)	222 (NLIENVQRL; listed as Homo sapiens) [compound 222]
″+++″ (≥50% = +++)	223 (ALLENIALYL; listed as Homo sapiens) [compound 223]
″+++″ (≥50% = +++)	224 (TLIDAQWVL; listed as Homo sapiens) [compound 224]
″+++″ (≥50% = +++)	225 (SLLKVLPAL; listed as Homo sapiens) [compound 225]
″++″ (≥20% = ++)	226 (MLYVVPIYL; listed as Homo sapiens) [compound 226]
″++″ (≥20% = ++)	227 (ALMNTLLYL; listed as Homo sapiens) [compound 227]
